Experimental data: PMC11526107, “ZC3HAV1 facilitates STING activation and enhances inflammation” (Communications Biology, 2024)

Assays:
[1] = biological target: the molecule itself; assay: native gel or EMSA; native PAGE (7% gel, no SDS, sodium deoxycholate in the cathode buffer) and immunoblot of lysates of mouse peritoneal macrophages after HSV-1, ISD or cGAMP; WT against Zc3hav1^-/- or Zc3hav1 siRNA (dimer and oligomer decreased)
[2] = biological target: the molecule itself; assay: native gel or EMSA; native PAGE and immunoblot of lysates of HEK293T cells transfected with STING with or without ZAPS or ZAPL, stimulated with DMXAA

B1: Stimulator of interferon genes (STING), endogenous in mouse peritoneal macrophages (natural protein, UniProt Q3TBT3 1-378, looked up)
chain: MPYSNLHPAIPRPRGHRSKYVALIFLVASLMILWVAKDPPNHTLKYLALHLASHELGLLLKNLCCLAEELCHVQSRYQGSYWKAVRACLGCPIHCMAMILLSSYFYFLQNTADIYLSWMFGLLVLYKSLSMLLGLQSLTPAEVSAVCEEKKLNVAHGLAWSYYIGYLRLILPGLQARIRMFNQLHNNMLSGAGSRRLYILFPLDCGVPDNLSVVDPNIRFRDMLPQQNIDRAGIKNRVYSNSVYEILENGQPAGVCILEYATPLQTLFAMSQDAKAGFSREDRLEQAKLFCRTLEEILEDVPESRNNCRLIVYQEPTDGNSFSLSQEVLRHIRQEEKEEVTMNAPMTSVAPPPSVLSQEPRLLISGMDQPLPLRTDLI
notes: mouse STING, endogenous; also called TMEM173; MITA; source: endogenous, mouse peritoneal macrophage lysate
stoichiometry N [1]: 2

B2: exogenous STING in HEK293T cells (native PAGE, Fig. 3i) (natural protein, UniProt Q3TBT3 1-378, looked up)
chain: MPYSNLHPAIPRPRGHRSKYVALIFLVASLMILWVAKDPPNHTLKYLALHLASHELGLLLKNLCCLAEELCHVQSRYQGSYWKAVRACLGCPIHCMAMILLSSYFYFLQNTADIYLSWMFGLLVLYKSLSMLLGLQSLTPAEVSAVCEEKKLNVAHGLAWSYYIGYLRLILPGLQARIRMFNQLHNNMLSGAGSRRLYILFPLDCGVPDNLSVVDPNIRFRDMLPQQNIDRAGIKNRVYSNSVYEILENGQPAGVCILEYATPLQTLFAMSQDAKAGFSREDRLEQAKLFCRTLEEILEDVPESRNNCRLIVYQEPTDGNSFSLSQEVLRHIRQEEKEEVTMNAPMTSVAPPPSVLSQEPRLLISGMDQPLPLRTDLI
notes: Probably the same construct as m9 or m10; the text and legend say only 'the indicated plasmids'; source: HEK293T, transfected, in lysate
stoichiometry N [2]: 2
